Molecular target: human GC-C (guanylate cyclase C) stably expressed in 293T cells (human) (UniProt P25092)
Test: cell-based or functional assay

Chain of human GC-C (guanylate cyclase C) stably expressed in 293T cells (human) (P25092 24-1073): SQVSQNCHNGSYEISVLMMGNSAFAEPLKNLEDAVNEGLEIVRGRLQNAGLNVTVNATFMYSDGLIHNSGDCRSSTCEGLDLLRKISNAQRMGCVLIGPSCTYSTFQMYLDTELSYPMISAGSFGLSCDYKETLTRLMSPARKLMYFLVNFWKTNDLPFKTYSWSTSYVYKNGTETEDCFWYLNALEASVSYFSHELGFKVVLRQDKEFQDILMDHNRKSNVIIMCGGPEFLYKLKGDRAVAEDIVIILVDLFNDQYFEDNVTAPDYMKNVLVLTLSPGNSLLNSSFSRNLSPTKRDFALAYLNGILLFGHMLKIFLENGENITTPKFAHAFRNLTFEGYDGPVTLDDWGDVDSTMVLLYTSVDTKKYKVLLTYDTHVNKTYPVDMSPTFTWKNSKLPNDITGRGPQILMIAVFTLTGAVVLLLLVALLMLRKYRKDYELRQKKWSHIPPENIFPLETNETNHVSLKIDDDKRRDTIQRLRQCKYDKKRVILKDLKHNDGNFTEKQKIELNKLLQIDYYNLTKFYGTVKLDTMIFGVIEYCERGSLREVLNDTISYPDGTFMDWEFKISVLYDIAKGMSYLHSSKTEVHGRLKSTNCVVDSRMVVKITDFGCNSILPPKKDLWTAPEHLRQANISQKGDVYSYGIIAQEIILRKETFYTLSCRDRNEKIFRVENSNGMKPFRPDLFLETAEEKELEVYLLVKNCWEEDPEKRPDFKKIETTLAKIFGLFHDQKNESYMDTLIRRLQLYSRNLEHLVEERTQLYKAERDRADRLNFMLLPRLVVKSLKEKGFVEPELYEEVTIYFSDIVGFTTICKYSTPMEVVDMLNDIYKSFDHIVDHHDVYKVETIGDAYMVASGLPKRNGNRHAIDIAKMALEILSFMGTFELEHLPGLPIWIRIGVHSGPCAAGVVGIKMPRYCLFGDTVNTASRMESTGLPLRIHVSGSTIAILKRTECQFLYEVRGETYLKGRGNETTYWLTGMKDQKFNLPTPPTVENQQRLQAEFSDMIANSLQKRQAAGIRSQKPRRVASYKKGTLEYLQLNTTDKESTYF

EC50 of the cGMP response (absorbance, Direct Cyclic GMP Enzyme Immunoassay Kit) to a guanylin dose-response, 30 min, GC-C-expressing 293T cell line: 1.1 nM
cGMP level in the GC-C-expressing cell line treated with low concentrations of guanylin: 6 pmol/mL
Substance: guanylin (peptide)

From US20120015841A1
